# From patent publication US12551525B2, “Collagen peptide-based medicament compositions and devices and methods of production and use thereof” (SUSTAIN HOLDINGS, LLC, priority 2017, dated 2026)
# B1: epidermal growth factor (protein, UniProt P01133 23-1207, looked up)
# Pro-epidermal growth factor: PQHWSCPEGTLAGNGNSTCVGPAPFLIFSHGNSIFRIDTEGTNYEQLVVDAGVSVIMDFHYNEKRIYWVDLERQLLQRVFLNGSRQERVCNIEKNVSGMAINWINEEVIWSNQQEGIITVTDMKGNNSHILLSALKYPANVAVDPVERFIFWSSEVAGSLYRADLDGVGVKALLETSEKITAVSLDVLDKRLFWIQYNREGSNSLICSCDYDGGSVHISKHPTQHNLFAMSLFGDRIFYSTWKMKTIWIANKHTGKDMVRINLHSSFVPLGELKVVHPLAQPKAEDDTWEPEQKLCKLRKGNCSSTVCGQDLQSHLCMCAEGYALSRDRKYCEDVNECAFWNHGCTLGCKNTPGSYYCTCPVGFVLLPDGKRCHQLVSCPRNVSECSHDCVLTSEGPLCFCPEGSVLERDGKTCSGCSSPDNGGCSQLCVPLSPVSWECDCFPGYDLQLDEKSCAASGPQPFLLFANSQDIRHMHFDGTDYGTLLSQQMGMVYALDHDPVENKIYFAHTALKWIERANMDGSQRERLIEEGVDVPEGLAVDWIGRRFYWTDRGKSLIGRSDLNGKRSKIITKENISQPRGIAVHPMAKRLFWTDTGINPRIESSSLQGLGRLVIASSDLIWPSGITIDFLTDKLYWCDAKQSVIEMANLDGSKRRRLTQNDVGHPFAVAVFEDYVWFSDWAMPSVMRVNKRTGKDRVRLQGSMLKPSSLVVVHPLAKPGADPCLYQNGGCEHICKKRLGTAWCSCREGFMKASDGKTCLALDGHQLLAGGEVDLKNQVTPLDILSKTRVSEDNITESQHMLVAEIMVSDQDDCAPVGCSMYARCISEGEDATCQCLKGFAGDGKLCSDIDECEMGVPVCPPASSKCINTEGGYVCRCSEGYQGDGIHCLDIDECQLGEHSCGENASCTNTEGGYTCMCAGRLSEPGLICPDSTPPPHLREDDHHYSVRNSDSECPLSHDGYCLHDGVCMYIEALDKYACNCVVGYIGERCQYRDLKWWELRHAGHGQQQKVIVVAVCVVVLVMLLLLSLWGAHYYRTQKLLSKNPKNPYEESSRDVRSRRPADTEDGMSSCPQPWFVVIKEHQDLKNGGQPVAGEDGQAADGSMQPTSWRQEPQLCGMGTEQGCWIPVSSDKGSCPQVMERSFHMPSYGTQTLEGGVEKPHSLLSANPLWQQRALDPPHQMELTQ
# modifications: Pro-epidermal growth factor
# notes: positive control growth factor
# Test system: corneal epithelium in wounded mouse eyes
# Assay: In vivo healing of mouse corneal epithelium (corneal wound model, fluorescein staining)
# Parameters: species or system mouse (C57BL/6)
# Details: positive control, 100 ng/ml; 16 hours post-wounding; compared to Cmpd 3 and Cmpd 10
# Protocol: The FIG. 1s a series of photomicrographs depicting the healing of a wound in the cornea of mouse eye, at time 0 and 16 hours post-wounding, upon treatment with certain compositions of the present invention. Wounds were introduced into the corneas of mice, and the mice treated immediately after wounding with vehicle (PBS), with 100 ng/ml of epidermal growth factor (EGF), or with 25 nM (about 3 mg/kg) of a (Pro-Pro-Gly)7 CMP of the invention (SEQ ID NO:1) (“Cmpd 3”), or of a (Hyp-Pro-Gly)7-SubP CMP-TC of the invention (SEQ ID NO:390) (“Cmpd 10”).
# To examine the possible therapeutic effects of CMPs and CMP-TC conjugates of the invention, studies were designed to test certain CMPs and CMP-TC conjugates in an in vivo setting—the healing of the corneal epithelium in wounded mouse eyes. […] Wound size at various time points over 48 hours was examined by fluorescein staining (see Carlson et al., id.), and documented via fluorescent photomicrography, and quantified using Image J software (see Rush, J. S. et al., Investig. Ophthalmol. Visual Sci. 57 (14): 5864-5871 (2016); Rush, J. S. et al., Investig. Ophthalmol. Visual Sci. 55 (8): 4691-4699 (2014)). […]
molecule,measurement,value
B1,wound healing in mouse cornea and corneal stroma (reduction in diameter and intensity of fluorescein fluorescence),a lower level of healing
